In patent US20230038638A1, “COMPLEMENT FACTOR I-RELATED COMPOSITIONS AND METHODS” (published 2023):

Tests used:
human C4b (human) [1] = target: T1, human C4b (human) (UniProt P0C0L4)
T1 sequence: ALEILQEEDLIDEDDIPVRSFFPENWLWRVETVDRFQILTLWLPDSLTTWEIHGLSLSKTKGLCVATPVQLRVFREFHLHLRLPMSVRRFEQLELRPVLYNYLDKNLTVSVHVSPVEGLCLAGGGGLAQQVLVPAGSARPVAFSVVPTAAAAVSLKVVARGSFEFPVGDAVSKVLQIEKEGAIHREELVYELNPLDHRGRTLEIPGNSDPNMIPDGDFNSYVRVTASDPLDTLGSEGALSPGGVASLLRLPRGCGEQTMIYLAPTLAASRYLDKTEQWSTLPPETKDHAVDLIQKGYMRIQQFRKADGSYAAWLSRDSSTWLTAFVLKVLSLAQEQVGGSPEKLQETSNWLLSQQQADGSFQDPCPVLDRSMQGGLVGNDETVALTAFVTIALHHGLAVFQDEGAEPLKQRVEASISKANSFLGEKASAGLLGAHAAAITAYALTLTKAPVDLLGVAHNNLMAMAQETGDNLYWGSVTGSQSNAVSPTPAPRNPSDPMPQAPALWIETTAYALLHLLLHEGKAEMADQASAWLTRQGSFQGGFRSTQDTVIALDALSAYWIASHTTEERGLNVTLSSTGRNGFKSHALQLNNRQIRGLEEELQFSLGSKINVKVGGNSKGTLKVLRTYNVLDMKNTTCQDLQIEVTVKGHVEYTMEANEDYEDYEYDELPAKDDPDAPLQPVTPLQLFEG

[2] = target: soluble human C3b (human) (UniProt P01024)
human C4b (human) [3] = target: T1, human C4b (human); remark: listed apart in the source
[4] = target: soluble human C3b (human) (UniProt P01024); remark: listed apart in the source

| Substance | C4c EC50 (nM) (human C4b (human) [1]) | iC3b EC50 [2] | C4b Screen Ref Fold (fold of CFI-HSA wild type) (human C4b (human) [3]) | iC3b Screen Ref Fold (fold of CFI-HSA wild type) [4] | C4b Screen Ref Fold (fold of reference) (human C4b (human) [3]) | iC3b Screen Ref Fold (fold of reference) [4] | C4c EC50 (human C4b (human) [1]) |
| --- | --- | --- | --- | --- | --- | --- | --- |
| CFI-HSA variant K504R; E530F; D425K; P558S (enzyme) | > 1000 nM | 5.7 nM | 0.05 | 2.91 |  |  |  |
| CFI-HSA variant E457S (enzyme) | 428 nM | 21.3 nM |  |  | 0.81 | 1.07 |  |
| CFI-HSA variant G406W (enzyme) |  | 65.5 nM |  |  | 1.57 | 0.38 | > 1000 nM |
| CFI-HSA variant K504R; E530F; D425R; P558S (enzyme) | > 1000 nM | 5.2 nM | 0.09 | 3 |  |  |  |
| CFI-HSA variant E461M (enzyme) | 148 nM | 6.9 nM |  |  | 1.9 | 2.12 |  |
| CFI-HSA variant P558S; E457G; E461Q; N531G (enzyme) | 7.2 nM | 4.3 nM | 4.21 | 1.89 |  |  |  |
| CFI-HSA variant K504R; E530F; D425K; P558S; E457G; E461Q; N531G (enzyme) | 6.9 nM | 2.4 nM | 3.92 | 1.98 |  |  |  |
| CFI-HSA variant T377G (enzyme) | 147 nM | 16.4 nM |  |  | 6.1 | 1.01 |  |
| CFI-HSA variant E457T (enzyme) | > 1000 nM | 10.4 nM |  |  | 1.34 | 1.5 |  |
| CFI-HSA variant G406Q (enzyme) |  | 30.7 nM |  |  | 0.91 | 0.68 | > 1000 nM |
| CFI-HSA variant E461H (enzyme) | 134 nM | 11.7 nM |  |  | 3.16 | 1.3 |  |
| CFI-HSA variant K504R; E530F; D425R; P558G (enzyme) | > 1000 nM | 6.2 nM | 0.02 | 2.97 |  |  |  |
| CFI-HSA variant G406D; Y408L (enzyme) |  | 78.2 nM |  |  | 0.15 | -0.02 | > 1000 nM |
| CFI-HSA variant E457V (enzyme) | 567 nM | 40.6 nM |  |  | 0.99 | 0.8 |  |

The remaining lines, values ahead:

| C4c EC50 (nM) (human C4b (human) [1]) | iC3b EC50 [2] | C4b Screen Ref Fold (fold of CFI-HSA wild type) (human C4b (human) [3]) | iC3b Screen Ref Fold (fold of CFI-HSA wild type) [4] | C4b Screen Ref Fold (fold of reference) (human C4b (human) [3]) | iC3b Screen Ref Fold (fold of reference) [4] | C4c EC50 (human C4b (human) [1]) | Substance |
| --- | --- | --- | --- | --- | --- | --- | --- |
| 182 nM | 10.5 nM |  |  | 4.6 | 1.42 |  | CFI-HSA variant E457R (enzyme) |
| 87.5 nM | 7.3 nM |  |  | 4.22 | 1.71 |  | CFI-HSA variant E461L (enzyme) |
| > 1000 nM | 43.8 nM |  |  | 0.14 | 0.52 |  | CFI-HSA variant K504M (enzyme) |
| 21.4 nM | 5.5 nM | 4.65 | 2.22 |  |  |  | CFI-HSA variant E457G; E461Q; R462K; F464Y; E530F; N531G; P558S (enzyme) |
| 47.8 nM | 12 nM | 3.37 | 0.77 |  |  |  | CFI-HSA variant T377G; E416A; K504H (enzyme) |
| > 1000 nM | 51.4 nM |  |  | 0.14 | 0.21 |  | CFI-HSA variant E457L (enzyme) |
|  | 52.4 nM |  |  | 1.09 | 0.52 | > 1000 nM | CFI-HSA variant G406T (enzyme) |
